Results on 94 variants are retold here after the supplement of paper PMC10567573.

First the molecules themselves.
B1: CFHR2 (parent)
chain: FVENGHSESSGQTHLEGDTVQIIC
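Note: lentivirally expressed fusions sorted by FACS into six bins by GFP to DsRed ratio, PSI derived from sequencing read proportions per bin multiplied by bin number.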

Variants of B1 are the subject of this data set. In words: protein stability index of a GFP-peptide fusion (GPS, HEK-293T) (PSI 1-6); higher = more stable. As to conditions: c terminus: a fixed tail appended.
In the case of FVENGHSESSRQTHLEGDTVQIIC [G11R], the protein stability index came to 2.86.

For the variant FVENGHSESSQQTHLEGDTVQIIC [G11Q], the protein stability index is 2.96.

Turning to FVENGHSESSEQTHLEGDTVQIIC [G11E], the protein stability index was found to be 3.32.

In the case of FVENGHSESSNQTHLEGDTVQIIC [G11N], the protein stability index was determined as 3.09.

Consider FVENGHSESSVQTHLEGDTVQIIC [G11V], for which the protein stability index worked out at 2.67.

On to FVENGHSESSYQTHLEGDTVQIIC [G11Y], for which the protein stability index is 2.04.

For FVENGHSESSDQTHLEGDTVQIIC [G11D], the protein stability index came to 3.4.

Turning to FVENGHSESSLQTHLEGDTVQIIC [G11L], the protein stability index is 2.5.

For FVENGHSESSCQTHLEGDTVQIIC [G11C], the protein stability index worked out at 2.19.

As for FVENGHSESSKQTHLEGDTVQIIC [G11K], the protein stability index is 2.39.

As to FVENGHSESSWQTHLEGDTVQIIC [G11W], the protein stability index came out at 2.33.

On to FVENGHSESSMQTHLEGDTVQIIC [G11M], for which the protein stability index stood at 2.03.

Turning to FVENGHSESSTQTHLEGDTVQIIC [G11T], the protein stability index was found to be 2.86.

For the variant FVENGHSESSSQTHLEGDTVQIIC [G11S], the protein stability index was found to be 2.48.

FVENGHSESSPQTHLEGDTVQIIC [G11P]: the protein stability index was found to be 3.22.

As for FVENGHSESSHQTHLEGDTVQIIC [G11H], the protein stability index was 2.67.

FVENGHSESSIQTHLEGDTVQIIC [G11I]: the protein stability index is 1.81.

Turning to FVENGHSESSFQTHLEGDTVQIIC [G11F], the protein stability index worked out at 1.98.

For the variant FVENGHSESSGQTHLEGMTVQIIC [D18M], the protein stability index turned out to be 1.83.

On to FVENGHSESSGQTHLEGETVQIIC [D18E], for which the protein stability index was 2.76.

For FVENGHSESSGQTHLEGWTVQIIC [D18W], the protein stability index came to 1.62.

Take FVENGHSESSGQTHLEGPTVQIIC [D18P]: the protein stability index came out at 2.23.

As to FVENGHSESSGQTHLEGNTVQIIC [D18N], the protein stability index is 2.25.

Take FVENGHSESSGQTHLEGTTVQIIC [D18T]: the protein stability index came to 2.31.

In the case of FVENGHSESSGQTHLEGVTVQIIC [D18V], the protein stability index was 2.34.

Turning to FVENGHSESSGQTHLEGYTVQIIC [D18Y], the protein stability index worked out at 2.36.

In the case of FVENGHSESSGQTHLEGQTVQIIC [D18Q], the protein stability index is 2.47.

As to FVENGHSESSGQTHLEGSTVQIIC [D18S], the protein stability index was 2.58.

Take FVENGHSESSGQTHLEGKTVQIIC [D18K]: the protein stability index was 2.52.

Regarding FVENGHSESSGQTHLEGITVQIIC [D18I], the protein stability index amounted to 2.02.

FVENGHSESSGQTHLEGHTVQIIC [D18H]: the protein stability index was 2.28.

On to FVENGHSESSGQTHLEGLTVQIIC [D18L], for which the protein stability index came out at 2.62.

As for FVENGHSESSGQTHLEGCTVQIIC [D18C], the protein stability index was 1.65.

With FVENGHSESSGQTHLEGFTVQIIC [D18F], the protein stability index was 2.33.

For FVENGHSESSGQTHLEGRTVQIIC [D18R], the protein stability index amounted to 2.07.

As to FVENGHSESSGQTHLEGATVQIIC [D18A], the protein stability index was determined as 2.13.

Turning to FVENGHSESSGQTHLEGGTVQIIC [D18G], the protein stability index was found to be 2.3.

Take FVENGHSESSGQRHLEGDTVQIIC [T13R]: the protein stability index came out at 2.47.

As to FVENGHSESSGQSHLEGDTVQIIC [T13S], the protein stability index amounted to 2.95.

In the case of FVENGHSESSGQFHLEGDTVQIIC [T13F], the protein stability index came to 1.88.

On to FVENGHSESSGQQHLEGDTVQIIC [T13Q], for which the protein stability index came to 3.18.

For the variant FVENGHSESSGQGHLEGDTVQIIC [T13G], the protein stability index was determined as 3.03.

With FVENGHSESSGQNHLEGDTVQIIC [T13N], the protein stability index worked out at 3.35.

FVENGHSESSGQDHLEGDTVQIIC [T13D]: the protein stability index worked out at 3.43.

For FVENGHSESSGQKHLEGDTVQIIC [T13K], the protein stability index was 2.48.

Take FVENGHSESSGQCHLEGDTVQIIC [T13C]: the protein stability index was 2.55.

As for FVENGHSESSGQHHLEGDTVQIIC [T13H], the protein stability index is 2.34.

As for FVENGHSESSGQLHLEGDTVQIIC [T13L], the protein stability index stood at 2.29.

In the case of FVENGHSESSGQYHLEGDTVQIIC [T13Y], the protein stability index was determined as 2.19.

On to FVENGHSESSGQAHLEGDTVQIIC [T13A], for which the protein stability index turned out to be 2.54.

In the case of FVENGHSESSGQEHLEGDTVQIIC [T13E], the protein stability index is 3.3.

Turning to FVENGHSESSGQMHLEGDTVQIIC [T13M], the protein stability index was 2.19.

Consider FVENGHSESSGQVHLEGDTVQIIC [T13V], for which the protein stability index is 2.24.

As for FVENGHSESSGQIHLEGDTVQIIC [T13I], the protein stability index was determined as 2.06.

With FVENGHSESSGQPHLEGDTVQIIC [T13P], the protein stability index is 2.87.

As to FVENGHSESSGQWHLEGDTVQIIC [T13W], the protein stability index worked out at 1.85.

With FVENGHSESSGQTVLEGDTVQIIC [H14V], the protein stability index was 2.95.

FVENGHSESSGQTSLEGDTVQIIC [H14S]: the protein stability index amounted to 3.02.

As for FVENGHSESSGQTKLEGDTVQIIC [H14K], the protein stability index was determined as 2.35.

Consider FVENGHSESSGQTNLEGDTVQIIC [H14N], for which the protein stability index came to 3.43.

With FVENGHSESSGQTILEGDTVQIIC [H14I], the protein stability index is 3.28.

As for FVENGHSESSGQTMLEGDTVQIIC [H14M], the protein stability index was 2.35.

Consider FVENGHSESSGQTYLEGDTVQIIC [H14Y], for which the protein stability index is 2.52.

For the variant FVENGHSESSGQTLLEGDTVQIIC [H14L], the protein stability index is 2.37.

Turning to FVENGHSESSGQTPLEGDTVQIIC [H14P], the protein stability index turned out to be 2.83.

As for FVENGHSESSGQTQLEGDTVQIIC [H14Q], the protein stability index came to 3.46.

On to FVENGHSESSGQTALEGDTVQIIC [H14A], for which the protein stability index worked out at 3.11.

As to FVENGHSESSGQTTLEGDTVQIIC [H14T], the protein stability index is 3.08.

As for FVENGHSESSGQTDLEGDTVQIIC [H14D], the protein stability index turned out to be 3.29.

FVENGHSESSGQTFLEGDTVQIIC [H14F]: the protein stability index amounted to 1.89.

FVENGHSESSGQTRLEGDTVQIIC [H14R]: the protein stability index amounted to 2.89.

Consider FVENGHSESSGQTELEGDTVQIIC [H14E], for which the protein stability index stood at 4.18.

As to FVENGHSESSGQTWLEGDTVQIIC [H14W], the protein stability index worked out at 1.75.

FVENGHSESSGQTGLEGDTVQIIC [H14G]: the protein stability index turned out to be 2.47.

Turning to FVENGHSESSGQTCLEGDTVQIIC [H14C], the protein stability index came out at 1.96.

Turning to FVENGHSESSGQTHLEGDKVQIIC [T19K], the protein stability index was determined as 2.82.

With FVENGHSESSGQTHLEGDEVQIIC [T19E], the protein stability index worked out at 3.09.

In the case of FVENGHSESSGQTHLEGDWVQIIC [T19W], the protein stability index was 1.53.

Take FVENGHSESSGQTHLEGDRVQIIC [T19R]: the protein stability index amounted to 2.37.

As to FVENGHSESSGQTHLEGDYVQIIC [T19Y], the protein stability index was 2.24.

As to FVENGHSESSGQTHLEGDGVQIIC [T19G], the protein stability index was found to be 3.25.

As for FVENGHSESSGQTHLEGDPVQIIC [T19P], the protein stability index turned out to be 3.13.

Turning to FVENGHSESSGQTHLEGDLVQIIC [T19L], the protein stability index is 2.14.

Regarding FVENGHSESSGQTHLEGDHVQIIC [T19H], the protein stability index is 3.1.

For FVENGHSESSGQTHLEGDQVQIIC [T19Q], the protein stability index stood at 3.19.

Regarding FVENGHSESSGQTHLEGDIVQIIC [T19I], the protein stability index is 2.62.

For FVENGHSESSGQTHLEGDMVQIIC [T19M], the protein stability index amounted to 2.33.

For the variant FVENGHSESSGQTHLEGDFVQIIC [T19F], the protein stability index came to 2.66.

On to FVENGHSESSGQTHLEGDDVQIIC [T19D], for which the protein stability index stood at 3.68.

For the variant FVENGHSESSGQTHLEGDVVQIIC [T19V], the protein stability index turned out to be 3.3.

With FVENGHSESSGQTHLEGDCVQIIC [T19C], the protein stability index is 2.84.

As for FVENGHSESSGQTHLEGDSVQIIC [T19S], the protein stability index stood at 3.21.

As for FVENGHSESSGQTHLEGDNVQIIC [T19N], the protein stability index turned out to be 3.71.

Turning to FVENGHSESSGDTHLEGDTVQIIC [Q12D], the protein stability index worked out at 3.46.
